This passage reports LC3B-hAtg3^∆90-190 thioester intermediate formed, after 1 h, LC3B–PE conjugase activity compared to the wild type (in vitro conjugation assay) and LC3B-hAtg3 thioester intermediate formed, within 30 min results from publication PMC7809043.

The test has as its target mouse Atg7 (mAtg7) (mouse) (UniProt Q9D906).

mouse Atg7 (mAtg7) (mouse), sequence (Q9D906 whole entry): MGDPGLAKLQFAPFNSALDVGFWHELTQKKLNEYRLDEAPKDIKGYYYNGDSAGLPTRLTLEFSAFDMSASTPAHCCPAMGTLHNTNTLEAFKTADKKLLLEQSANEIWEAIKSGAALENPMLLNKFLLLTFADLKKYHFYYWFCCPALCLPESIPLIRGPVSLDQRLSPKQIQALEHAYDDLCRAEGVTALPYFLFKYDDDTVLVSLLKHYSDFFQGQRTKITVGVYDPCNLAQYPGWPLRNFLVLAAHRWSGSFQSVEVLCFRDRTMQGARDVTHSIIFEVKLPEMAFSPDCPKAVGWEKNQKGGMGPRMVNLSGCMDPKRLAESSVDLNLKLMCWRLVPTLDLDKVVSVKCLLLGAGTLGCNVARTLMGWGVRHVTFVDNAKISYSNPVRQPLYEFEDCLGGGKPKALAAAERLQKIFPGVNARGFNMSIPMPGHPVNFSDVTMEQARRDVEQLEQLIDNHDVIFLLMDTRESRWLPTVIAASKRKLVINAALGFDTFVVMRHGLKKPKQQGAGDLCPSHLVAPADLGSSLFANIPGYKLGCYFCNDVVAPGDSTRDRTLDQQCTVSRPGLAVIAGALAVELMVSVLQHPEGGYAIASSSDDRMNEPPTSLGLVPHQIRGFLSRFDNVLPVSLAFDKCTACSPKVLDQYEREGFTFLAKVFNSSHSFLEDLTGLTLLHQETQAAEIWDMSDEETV

“hAtg3^∆90-190 (from UniProt Q9NT62 1-314) (enzyme)”: the LC3B-hAtg3^∆90-190 thioester intermediate formed, after 1 h came to 25% and the LC3B–PE conjugase activity compared to the wild type (in vitro conjugation assay) is 50%.
Turning to “human Atg3 (hAtg3), wild type (from UniProt Q9NT62 1-314) (enzyme)”, the LC3B-hAtg3 thioester intermediate formed, within 30 min was determined as 70%.
